The values below come from article PMC11312917.

For assay [1], the target named is isolated PDZ domain of Pdlim5 fused to a Golgi localization sequence (UniProt Q96HC4). In words: Golgi co-relocalization assay (immunofluorescence, Pearson's correlation coefficient). Conditions: HT-22 cells; co-expression of GLS-PDZ with isolated LIM 4xMut; parent: est. 0.84; read off a plot.
Another assay has as its target Nck2 SH2 domain (UniProt O43639). In words: GST-domain microarray probed with biotinylated peptide. As to conditions: reference: unphosphorylated peptide; sites Y251.
The target in the next assay is Fyn SH2 domain (UniProt P06241). The description is as above. Conditions: reference: unphosphorylated peptide; sites Y251.
The target in another assay is Abl1 SH2 domain (UniProt P00519). The assay is described as above. Conditions: reference: unphosphorylated peptide; sites Y251.
The target of the next assay is Abl2 SH2 domain (UniProt P42684). Described as above. Conditions: reference: unphosphorylated peptide; sites Y251.
The next assay deals with Yes SH2 domain (UniProt P07947). Described as above. As to conditions: reference: unphosphorylated peptide; sites Y251.
Assay [2] addresses isolated LIM domain of Pdlim5 fused to a Golgi localization sequence. In words: Golgi co-relocalization assay (immunofluorescence, Pearson's correlation coefficient). As to conditions: HT-22 cells; co-expression of GLS-LIM with isolated PDZ 4xMut; parent: est. 0.88; read off a plot.

Sequence of UniProt Q96HC4 (Q96HC4 2-85): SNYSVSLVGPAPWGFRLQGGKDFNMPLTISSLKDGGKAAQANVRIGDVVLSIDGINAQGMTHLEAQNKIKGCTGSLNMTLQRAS

As to “isolated LIM domain of Pdlim5 (not fused to GLS) C541G; F543A; T562A; C570A”, the other: Pearson corr. coef. (r) in assay [1] came out at 0.05.
For “Pdlim5 242-261 (from UniProt Q96HC4) pY251 peptide”, the “binding against the reference” value with Nck2 SH2 domain, in the assay with Fyn SH2 domain, with Abl1 SH2 domain, in the assay with Abl2 SH2 domain and in the assay with Yes SH2 domain was “stronger” each time.
In the case of “isolated PDZ domain of Pdlim5 (not fused to GLS) (from UniProt Q96HC4) P13G; R17A; K34G; K71A”, the other: Pearson corr. coef. (r) in assay [2] is 0.08.
